Experimental findings from paper PMC4740876 are described below.

The target in test [1] is mononucleosome containing H2B-Ub (ubiquitin on Lys120 of H2B by a stable isopeptide linkage) (UniProt P62807). In words: SEC-MALS; mononucleosomes (300 pmol) with the catalytic domain of hDot1L (8.5 nmol) in 25 mM Tris-HCl, 150 mM NaCl, pH 7.8, 4 °C 30 min; Superdex 200 10/300. For orientation: Size exclusion chromatography separates by hydrodynamic size, large species first.

Test [2] addresses unmodified mononucleosome. The description is as above.

“cysteine-less catalytic domain of hDot1L, hDot1L(1–416)C44S/C74S/C178S (from UniProt Q8TEK3 2-417) (enzyme)”: the stoichiometry N (hDot1L per mononucleosome) in test [1] stood at 2; in test [2] it was 1.
